Assay results taken from PMC2881812.

Target: p22(79-227) (T. brucei)
Assay: SEC

## p22(79-227) (domain or fragment)
  stoichiometry N: 3
